Data as given in article PMC13006735.
Where two headings read alike, the source gives them in different places.

Columns and labels:
[1] = molecular target: Ebola virus (EBOV, Zaire) glycoprotein GP, wild type (Ebola virus (EBOV, Zaire)) (UniProt Q05320)
[2] = molecular target: Sudan virus (SUDV) glycoprotein GP (Sudan virus (SUDV)) (UniProt Q7T9D9)
[3] = molecular target: Sudan virus (SUDV) glycoprotein GP (Sudan virus (SUDV)) (UniProt Q7T9D9); remark: listed apart in the source

| Substance | IC50, neutralisation of EBOV GP pseudovirus (luciferase, Huh7 cells) [1] | IC90, neutralisation of EBOV GP pseudovirus (luciferase, Huh7 cells) [1] | IC90, neutralisation of SUDV GP pseudovirus (luciferase, Huh7 cells) [2] | IC50, neutralisation of SUDV GP pseudovirus (luciferase, Huh7 cells) [3] | IC90, neutralisation of SUDV GP pseudovirus (luciferase, Huh7 cells) [3] |
| --- | --- | --- | --- | --- | --- |
| A50Y/S52Y/L54R-LC (ADI-15946 light chain triple mutant) (antibody) | 0.15 µg/mL | 1.1 µg/mL | – | – | – |
| ADI-15878 (antibody) | – | – | 0.3 µg/mL | 0.04 µg/mL | 0.9 µg/mL |
| H27Q/S52Y/G66R-LC (ADI-15946 light chain triple mutant) (antibody) | 0.15 µg/mL | 0.86 µg/mL | – | – | – |
